Here are results for 2 substances from patent US20020198363A1.

The IC50 is the point on the concentration scale where inhibition reaches its midpoint. A low value points to inhibition by little substance.

This assay has as its target chimera protein of europium (Eu) labeled human glycoprotein Ib α-chain and a mouse IgG2a Fc region (human; mouse) (UniProt P07359).
Sequence of UniProt P07359 (P07359 17-335 limits assumed, change not shown): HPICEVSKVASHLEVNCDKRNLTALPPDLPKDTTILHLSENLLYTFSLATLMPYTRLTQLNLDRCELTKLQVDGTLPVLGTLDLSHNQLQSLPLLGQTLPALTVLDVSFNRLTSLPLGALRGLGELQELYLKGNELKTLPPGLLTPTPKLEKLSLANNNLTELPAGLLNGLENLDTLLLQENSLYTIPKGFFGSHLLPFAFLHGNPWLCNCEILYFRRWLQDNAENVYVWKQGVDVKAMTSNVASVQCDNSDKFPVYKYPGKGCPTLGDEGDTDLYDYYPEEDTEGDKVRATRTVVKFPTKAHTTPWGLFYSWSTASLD

Consider “AS1051-PEG5000 (from UniProt P81508 1-126)”, for which the IC50 was 0.0981 µg/mL.
In turn, “AS1051-PEG20000 (from UniProt P81508 1-126)” showed an IC50 of 0.0903 µg/mL.
